Results on four molecules are retold here after publication PMC7305210, “Mitochondria-adaptor TRAK1 promotes kinesin-1 driven transport in crowded environments” (Nature Communications, 2020).

Sequences and labels used below:
B1: KIF5B∆-GFP in complex with mCherry-TRAK1 (complex)
chain 1: MADLAECNIKVMCRFRPLNESEVNRGDKYIAKFQGEDTVVIASKPYAFDRVFQSSTSQEQVYNDCAKKIVKDVLEGYNGTIFAYGQTSSGKTHTMEGKLHDPEGMGIIPRIVQDIFNYIYSMDENLEFHIKVSYFEIYLDKIRDLLDVSKTNLSVHEDKNRVPYVKGCTERFVCSPDEVMDTIDEGKSNRHVAVTNMNEHSSRSHSIFLINVKQENTQTEQKLSGKLYLVDLAGSEKVSKTGAEGAVLDEAKNINKSLSALGNVISALAEGSTYVPYRDSKMTRILQDSLGGNCRTTIVICCSPSSYNESETKSTLLFGQRAKTIKNTVCVNVELTAEQWKKKYEKEKEKNKILRNTIQWLENELNRWRNGETVPIDEQFDKEKANLEAFTVDKDITLTNDKPATAIGVIGNFTDAERRKCEEEIAKLYKQLDDKDEEINQQSQLVEKLKTQMLDQEELLASTRRDQDNMQAELNRLQAENDASKEEVKEVLQALEELAVNYDQKSQEVEDKTKEYELLSDELNQKSATLASIDAELQKLKEMTNHQKKRAAEMMASLLKDLAEIGIAVGNNDVKQPEGTGMIDEEFTVARLYISKMKSEVKTMVKRCKQLESTQTESNKKMEENEKELAACQLRISQHEAKIKSLTEYLQNVEQKKRQLEESVDALSEELVQLRAQEKVHEMEKEHLNKVQTANEVKQAVEQQIQSHRETHQKQISSLRDEVEAKAKLITDLQDQNQKMMLEQERLRVEHEKLKATDQEKSRKLHELTVMQDRREQARQDLKGLEETVAKELQTLHNLRKLFVQDLATRVKKSAEIDSDDTGGSAAQKQKISFLENNLEQLTKVHKQLVRDNADLRCELPKLEKRLRATAERVKALESALKEAKENASRDRKRYQQEVDRIKEA
chain 2: MALVFQFGQPVRAQPLPGLCHGKLIRTNACDVCNSTDLPEVEIISLLEEQLPHYKLRADTIYGYDHDDWLHTPLISPDANIDLTTEQIEETLKYFLLCAERVGQMTKTYNDIDAVTRLLEEKERDLELAARIGQSLLKKNKTLTERNELLEEQVEHIREEVSQLRHELSMKDELLQFYTSAAEESEPESVCSTPLKRNESSSSVQNYFHLDSLQKKLKDLEEENVVLRSEASQLKTETITYEEKEQQLVNDCVKELRDANVQIASISEELAKKTEDAARQQEEITHLLSQIVDLQKKAKACAVENEELVQHLGAAKDAQRQLTAELRELEDKYAECMEMLHEAQEELKNLRNKTMPNTTSRRYHSLGLFPMDSLAAEIEGTMRKELQLEEAESPDITHQKRVFETVRNINQVVKQRSLTPSPMNIPGSNQSSAMNSLLSSCVSTPRSSFYGSDIGNVVLDNKTNSIILETEAADLGNDERSKKPGTPGTPGSHDLETALRRLSLRRENYLSERRFFEEEQERKLQELAEKGELRSGSLTPTESIMSLGTHSRFSEFTGFSGMSFSSRSYLPEKLQIVKPLEGSATLHHWQQLAQPHLGGILDPRPGVVTKGFRTLDVDLDEVYCLNDFEEDDTGDHISLPRLATSTPVQHPETSAHHPGKCMSQTNSTFTFTTCRILHPSDELTRVTPSLNSAPTPACGSTSHLKSTPVATPCTPRRLSLAESFTNTRESTTTMSTSLGLVWLLKERGISAAVYDPQSWDRAGRGSLLHSYTPKMAVIPSTPPNSPMQTPTSSPPSFEFKCTSPPYDNFLASKPASSILREVREKNVRSSESQTDVSVSNLNLVDKVRRFGVAKVVNSGRAHVPTLTEEQGPLLCGPPGPAPALVPRGLVPEGLPLRCPTVTSAIGGLQLNSGIRRNRSFPTMVGSSMQMKAPVTLTSGILMGAKLSKQTSLR
notes: KIF5B, kinesin-1 heavy chain, human, amino acids 1-905; as m2; TRAK1, cDNA KIAA1042; as m5; also called KIF5B∆-GFP-mCherry-TRAK1 complex; KIF5B∆-TRAK1 transport complex; source: the two purified proteins (m2 from SF9, m5 from HEK293T) pre-incubated 10 min on ice; not shown: GFP, C-terminal, kept; 6xHis, C-terminal, cleaved; mCherry, N-terminal, kept; TwinStrep-FLAG-Halo, N-terminal, cleaved; …
B2: KIF5B-GFP-mCherry-TRAK1∆ complex (complex)
chain 1: MADLAECNIKVMCRFRPLNESEVNRGDKYIAKFQGEDTVVIASKPYAFDRVFQSSTSQEQVYNDCAKKIVKDVLEGYNGTIFAYGQTSSGKTHTMEGKLHDPEGMGIIPRIVQDIFNYIYSMDENLEFHIKVSYFEIYLDKIRDLLDVSKTNLSVHEDKNRVPYVKGCTERFVCSPDEVMDTIDEGKSNRHVAVTNMNEHSSRSHSIFLINVKQENTQTEQKLSGKLYLVDLAGSEKVSKTGAEGAVLDEAKNINKSLSALGNVISALAEGSTYVPYRDSKMTRILQDSLGGNCRTTIVICCSPSSYNESETKSTLLFGQRAKTIKNTVCVNVELTAEQWKKKYEKEKEKNKILRNTIQWLENELNRWRNGETVPIDEQFDKEKANLEAFTVDKDITLTNDKPATAIGVIGNFTDAERRKCEEEIAKLYKQLDDKDEEINQQSQLVEKLKTQMLDQEELLASTRRDQDNMQAELNRLQAENDASKEEVKEVLQALEELAVNYDQKSQEVEDKTKEYELLSDELNQKSATLASIDAELQKLKEMTNHQKKRAAEMMASLLKDLAEIGIAVGNNDVKQPEGTGMIDEEFTVARLYISKMKSEVKTMVKRCKQLESTQTESNKKMEENEKELAACQLRISQHEAKIKSLTEYLQNVEQKKRQLEESVDALSEELVQLRAQEKVHEMEKEHLNKVQTANEVKQAVEQQIQSHRETHQKQISSLRDEVEAKAKLITDLQDQNQKMMLEQERLRVEHEKLKATDQEKSRKLHELTVMQDRREQARQDLKGLEETVAKELQTLHNLRKLFVQDLATRVKKSAEIDSDDTGGSAAQKQKISFLENNLEQLTKVHKQLVRDNADLRCELPKLEKRLRATAERVKALESALKEAKENASRDRKRYQQEVDRIKEAVRSKNMARRGHSAQIAKPIRPGQHPAASPTHPSAIRGGGAFVQNSQPVAVRGGGGKQV
chain 2: MALVFQFGQPVRAQPLPGLCHGKLIRTNACDVCNSTDLPEVEIISLLEEQLPHYKLRADTIYGYDHDDWLHTPLISPDANIDLTTEQIEETLKYFLLCAERVGQMTKTYNDIDAVTRLLEEKERDLELAARIGQSLLKKNKTLTERNELLEEQVEHIREEVSQLRHELSMKDELLQFYTSAAEESEPESVCSTPLKRNESSSSVQNYFHLDSLQKKLKDLEEENVVLRSEASQLKTETITYEEKEQQLVNDCVKELRDANVQIASISEELAKKTEDAARQQEEITHLLSQIVDLQKKAKACAVENEELVQHLGAAKDAQRQLTAELRELEDKYAECMEMLHEAQEELKNLRNKTMPNTTSRRYHSLGLFPMDSLAAEIEGTMRKELQLEEAESPDITHQKRVFETVRNINQVVKQRSLTPSPMNIPGSNQSSAMNSLLSSCVSTPRSSFYGSDIGNVVLDNKTNSIILETEAADLGNDERSKKPGTPGTPGSHDLETALRRLSLRRENYLSERRFFEEEQERKLQELAEKGELRSGSLTPTESIMSLGTHSRFSEFTGFSGMSFSSRSYLPEKLQIVKPLEGSATLHHWQQLAQPHLGGILDPRPGVVTKGFRTLDVDLDEVYCLNDFEEDDTGD
notes: KIF5B, kinesin-1 heavy chain, human, amino acids 1-963; as m1; TRAK1, stop codon after amino acid 635; as m6; also called truncated KIF5B-GFP-mCherry-TRAK1∆ complex; source: the two purified proteins (m1 from SF9, m6 from HEK293T) pre-incubated 10 min on ice; not shown: GFP, C-terminal, kept; 6xHis, C-terminal, cleaved; mCherry, N-terminal, kept; TwinStrep-FLAG-Halo, N-terminal, cleaved
B3: KIF5B∆-GFP in complex with mCherry-TRAK1∆ (complex)
chain 1: B1 chain 1
chain 2: B2 chain 2
notes: KIF5B, kinesin-1 heavy chain, human, amino acids 1-905; as m2; TRAK1, stop codon after amino acid 635; as m6; source: the two purified proteins (m2 from SF9, m6 from HEK293T) pre-incubated 10 min on ice; not shown: GFP, C-terminal, kept; 6xHis, C-terminal, cleaved; mCherry, N-terminal, kept; TwinStrep-FLAG-Halo, N-terminal, cleaved
B4: KIF5B-GFP-mCherry-TRAK1 complex (complex)
chain 1: B2 chain 1
chain 2: B1 chain 2
notes: KIF5B, kinesin-1 heavy chain, human, amino acids 1-963; as m1; TRAK1, cDNA KIAA1042; as m5; Only traces of mCherry-TRAK1 were analysed, so that the moving particles are complexes; also called KIF5B-TRAK1 transport complex; source: the two purified proteins (m1 from SF9, m5 from HEK293T) pre-incubated 10 min on ice; not shown: GFP, C-terminal, kept; 6xHis, C-terminal, cleaved; mCherry, N-terminal, …

This assay addresses microtubules polymerized from porcine tubulin (porcine, UniProt P02550 1-451; Q767L7 1-444, Alexa Fluor 647 NHS ester on 20% of the tubulin in fluorescently labeled microtubules | Alexa Fluor 647 NHS ester on 20% of the tubulin in fluorescently labeled microtubules). Nature of the assay: single-molecule TIRF microscopy, two-colour co-movement on immobilised microtubules; KIF5B construct and 175 nM TRAK1 construct pre-incubated 10 min on ice, flushed onto bare immobilised microtubules in motility buffer with 1 mM Mg-ATP; room temperature; for the complexes traces of the mCherry-TRAK1 channel analysed. Particulars: both partners purified.
With B1, the “median interaction time with microtubules” value (from here on “median interaction time”) is 12.2 s.

Turning to B2, the “median interaction time” value turned out to be 5.33 s.

As to B3, the “median interaction time” value was 2.22 s.

Consider B4, for which the “median interaction time” value worked out at 19.3 s.
